In patent publication US20060094649A1 one finds IC50 data, which are given here for 36 molecules.

Holding throughout (details): remark: other sources report otherwise
In one test the target is HLA-B*4002 (human). As to the kind of experiment: competition with radiolabeled probe peptide, purified HLA.
In test [1] the target is HLA-A*0301 (human). As to the kind of experiment: competition vs 125I probe, purified HLA.
The target of test [2] is HLA-A*3101 (human). As to the kind of experiment: competition vs 125I probe, purified HLA.
In test [3] the target is HLA-A*0301 (human). As to the kind of experiment: competitive inhibition of 125I-A3con binding to purified HLA.
Another test has as its target HLA-B*0702 (human). As to the kind of experiment: inhibition of 125I-[..] probe, purified HLA.
Test [4] addresses HLA-A*1101 (human). As to the kind of experiment: competition vs 125I probe, purified HLA.
Test [5] concerns the target HLA-A*1101 (human). As to the kind of experiment: competitive inhibition of 125I-A3con binding to purified HLA.
The next test addresses HLA-A*6801 (human). As to the kind of experiment: competition vs 125I probe, purified HLA.
For another test, the target named is HLA-A*3301 (human). As to the kind of experiment: competition vs 125I probe, purified HLA.
The target in the next test is HLA-B*5401 (human). As to the kind of experiment: competition vs 125I probe, purified HLA.
The next test deals with HLA-B*3501 (human). As to the kind of experiment: inhibition of 125I-B35con2 probe, purified HLA.
The next test deals with HLA-B*5301 (human). As to the kind of experiment: competition vs 125I probe, purified HLA.
For test [6], the target named is HLA-A*3101 (human). As to the kind of experiment: competitive inhibition of 125I-A3con binding to purified HLA.

In the case of GERLPQPPICTI […], in the test with HLA-B*4002 (human), the IC50 worked out at 9.5 nM.

In turn, RVCACPGR [p53.273 (8-mer)] returned an IC50 with HLA-A*0301 (human) [1] of 31 nM.

For the molecule CTYSPALNK [p53.124], the IC50 with HLA-A*3101 (human) [2] stood at 1500 nM.

For the molecule GTRVRAMAIYK [p53.154 …], the IC50 with HLA-A*0301 (human) [3] amounted to 10 nM.

YPLWSQSI [MAGE3.77.I8 YPLWSQSI] came in with an IC50 with HLA-B*0702 (human) of 60 nM.

Molecule TVINYTLWK [MAGE2.73.V2K9] registered an IC50 with HLA-A*3101 (human) [2] of 9000 nM.

On to KTYQGSYGFK [p53.101.K10], for which the IC50 with HLA-A*1101 (human) [4] amounted to 14 nM.

Molecule YVFPVIFSK [MAGE3.138.V2 …] registered an IC50 with HLA-A*1101 (human) [5] of 3 nM.

Turning to SSFSTTINK [MAGE2.69.K9 …], the IC50 with HLA-A*1101 (human) [5] came out at 3 nM.

In turn, RVRAMAIYK [p53.156] had an IC50 with HLA-A*3101 (human) [2] of 5 nM.

In the test with HLA-A*1101 (human) [4], SSFSTTINK [MAGE2.69.K9] displayed a 50% inhibitory concentration (IC50) of 3 nM.

YVFPVIFSK [MAGE3.138.V2] returned an IC50 in the test with HLA-A*1101 (human) [4] of 3 nM.

LVHFLLLKY [MAGE2/3.116 (9-mer)] registered an IC50 in the test with HLA-A*6801 (human) of 8000 nM.

Molecule YFFPVIFSK [MAGE3.138] gave an IC50 with HLA-A*0301 (human) [1] of 5000 nM.

Regarding YVFPVIFSR [MAGE3.138.V2R9], the figures for the IC50 with HLA-A*0301 (human) [1] and in the test with HLA-A*3101 (human) [2] were 36 nM and 6 nM, respectively.

As for SMLEVFEGR [MAGE2.226], the IC50 in the test with HLA-A*3301 (human) was found to be 9 nM.

Take SSCMGGMNR [p53.240 (9-mer)]: the IC50 in the test with HLA-A*1101 (human) [4] is 4.3 nM; with HLA-A*0301 (human) [1], 550 nM.

In turn, LLGDNQIMPK [MAGE3.189] registered an IC50 in the test with HLA-A*0301 (human) [1] of 500 nM.

On to SSCMGGMNRR [p53.240 (10-mer)], for which the concentration for half-maximal inhibition (IC50) with HLA-A*1101 (human) [4] worked out at 70 nM.

In the test with HLA-B*5401 (human), IPWQRLLLTA [CEA.13] gave an IC50 of 3.2 nM.

SVSRHKKLMFR [p53.376.V2R11] came in with an IC50 with HLA-A*6801 (human) of 500 nM.

Molecule APAPAPSW [p53.84 APAPAPSW] yielded an IC50 with HLA-B*3501 (human) of 32.7 nM.

In turn, GVRVRAMAIYK [p53.154.V2] displayed an IC50 with HLA-A*0301 (human) [1] of 58 nM.

KPYDGIPI [Her2/neu.921I8] showed an IC50 with HLA-B*5301 (human) of 51.7 nM.

On to FSTTINYTLWR [MAGE2.71], for which, in the test with HLA-A*0301 (human) [1], the half-inhibitory concentration (IC50) amounted to 1000 nM.

In the case of RVRAMAIYR [p53.156.R9], the IC50 with HLA-A*3101 (human) [2] was determined as 9 nM.

With RVCACPGR [p53.273 RVCACPGR], the IC50 in the test with HLA-A*0301 (human) [3] was 31 nM.

Take CTYSPALNK [p53.124 …]: the IC50 with HLA-A*3101 (human) [6] turned out to be 1500 nM.

For KMFCQLAK [p53.132], the IC50 in the test with HLA-A*1101 (human) [4] was 17 nM; with HLA-A*0301 (human) [1], 29 nM; with HLA-A*6801 (human) it was 727 nM.

Regarding KVYQGSYGFK [p53.101.V2K10], the IC50 with HLA-A*1101 (human) [4] came out at 9.2 nM; with HLA-A*0301 (human) [1], 33 nM; with HLA-A*6801 (human) it was 38 nM.

For the molecule KVYQGSYGFR [p53.101.V2], the IC50 in the test with HLA-A*1101 (human) [4] is 62 nM; with HLA-A*0301 (human) [1], 38 nM; with HLA-A*6801 (human) it was 40 nM; with HLA-A*3101 (human) [2], 72 nM.

For the molecule LVHFLLLK [MAGE2/3.116 (8-mer)], the IC50 was 40 nM with HLA-A*1101 (human) [4] and 400 nM in the test with HLA-A*6801 (human).

In turn, GTRVRAMAIYK [p53.154] displayed an IC50 with HLA-A*0301 (human) [1] of 10 nM.

KTYQGSYGFK [p53.101.K10 …]: the IC50 with HLA-A*1101 (human) [5] is 14 nM.

In the test with HLA-A*0301 (human) [1], SVSRHKKLMFK [p53.375.V2] returned an IC50 of 33 nM.

Take ALIETSYVK [MAGE2.277]: the IC50 with HLA-A*3101 (human) [2] was 900 nM.

In general, IC50 refers to the concentration that gives 50% inhibition.
